Assay results taken from the supplement of paper PMC9170038.

Tested on: MS2 coat protein
Test: apparent KD of MS2 coat protein; designed switch direction (-1 OFF switch, 1 ON switch): -1; higher = weaker reporter binding
Method in brief: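 For each design, the apparent KD is the median over clusters of curves fitted to normalised cluster fluorescence. Clusters held RNA switches with common flanks, transcribed on Illumina chips by stalled E. coli RNA polymerase. These were titrated with SNAP-549-labelled MS2 coat protein, doubling from 0.7 or 1.5 nM to 3 µM, without input, with 200 uM small-molecule ligand, or with an oligonucleotide input.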

[1] = Eterna round: R95, input ligand: FMN 200 uM
[2] = Eterna round: R95, input ligand: microRNA oligo, concentration not stated
[3] = Eterna round: R95, input ligand: none
[4] = input ligand: microRNA oligo, concentration not stated

| Sequence | apparent KD of MS2 coat protein [1] [nM] | apparent KD of MS2 coat protein [2] [nM] | apparent KD of MS2 coat protein [3] [nM] | apparent KD of MS2 coat protein (input ligand: FMN 200 uM) [nM] | apparent KD of MS2 coat protein [4] [nM] | apparent KD of MS2 coat protein (input ligand: none) [nM] |
| --- | --- | --- | --- | --- | --- | --- |
| AAAAAGACAGGAUAUACAUGAGGAUCACCCAUGUGAAACAAAAUAAAAUAAAAUAAAAGUAGAAGGGUCAAAAA [Exclusion 3 #2] (puzzle: Exclusion 3) | 33.8 | 31.9 | 31.7 |  |  |  |
| AAAAAGCGAGGAUAUACAGGAAAAGAAAAGAAAAGAAAAGCACAUGAGGAUCACCCAUGUAGAAGGCGCGAAAA [Exclusion 2 #3] (puzzle: Exclusion 2) | 26.1 | 24.7 | 20.8 |  |  |  |
| AAAACACAUGAGGAUCACCCAUGUGAGGAUAUGUUCAUUGUGAGCAAACUUAUGAUGAACAGAAGGCACAUAAA [JR_Exclusion1_Sub017] (puzzle: Exclusion 1) |  | 38.9 |  |  |  |  |
| AAAACGUCAGGAUAUACAGAAGAGAUCACAAAAAAAAAAAAACAUGAGGAUCACCCAUGUAGAAGGGACAAAAA [Ex2 Malc#2] (Eterna round: R96, puzzle: Exclusion 2) |  |  |  | 185 | 81.2 | 115 |
| AAAACUAACACGAAAGUGUUAGAAUAAUAAGCUUGUGGUACAUGAGGAUCACCCAUGUCCUCAUAAGCUCGUCUUAU [Mat - Sensor v3 - Turn-off var 2 - D45] (puzzle: Sensor v3, turn-off variant 2) | 28 | 46.4 | 25.8 |  |  |  |
| AAAACUGGUGUUAGGAUAUUCCUAGGAAAGCUUGGGAAGAAGGGACAUGAGGAUCACCCAUGUCCAGUGAUCAG [Eternabot (Original) Solution 19] (Eterna round: R97, puzzle: Brourd's mod of Exclusion 4) |  |  |  | 19.1 |  | 21.6 |
| AAAAGAGUAGGAUAUCUGACGCGAAACAUGAGGAUCACCCAUGUAGGGCGGUCCUGCUUAAGAGAAGGGCUCUAAU [Arorxebile] (puzzle: Exclusion 5) | 155 | 119 | 164 |  |  |  |
| AAAAGCUCAGUCAGGAUAUGCAUUUGCACCGGCGAGCAGAAGGGACAUGAGGAUCACCCAUGUACGCGGCAGGG [Laaraor] (puzzle: Brourd's mod of Exclusion 4) | 80.8 | 37.1 | 59.9 |  |  |  |
| AAAAGGCAGCAGGAUAUAGUCACCAUCGGGUUGCUAGAAGGGCUAACAUGAGGAUCACCCAUGUGGGUGCAAAA [Soinsoan] (puzzle: Exclusion 6) | 578 | 452 | 667 |  |  |  |
| AAAAUAAAGAUAGGAUAUGCAGUAUAGCAAGAUCCGGACAUGAGGAUCACCCAUGUACUUCGAAAGCAGAAGGAUCAAACAAAA [Zamale] (Eterna round: R96, puzzle: Exclusion NG 2) |  |  |  | 30.3 | 30 | 26.6 |
| AAACACUGAGGAUAUGCAUAACAACAAAGCCUCACGUGCCAACAUGAGGAUCACCCAUGUAGAAGGCAGUCCAA [Mod R3 Insanara 16 - Jieux - Exclusion 2] (Eterna round: R97, puzzle: Exclusion 2) |  |  |  | 25 |  | 30 |
| AAACAGCAAGGAUAUACGGGCAGUGCUUAUCAUAUCAUACAACAUGAGGAUCACCCAUGUAGAAGGUGCAACAA [Ex2 #1] (Eterna round: R97, puzzle: Exclusion 2) |  |  |  | 108 |  | 39.1 |
| AAACCUCACAACCGUUAAAACAUGAGGAUCACCCAUGUGCCGUAACGGCGCAUGGUCGAGCUAGGCUCGUCCAUGCA [Zamacelaso] (Eterna round: R96, puzzle: Sensor v2, turn-off variant) |  |  |  | 12 | 10.2 | 15.4 |
| AAACUGCAUGUGAGGAUAUGCACCGACUAAACCGGGCAGAAGGCACAUGAGGAUCACCCAUGUCAUCCUAUUGC [Beederte] (puzzle: Brourd's mod of Exclusion 4) |  | 7.99 |  |  |  |  |
| AAAGAACAUGAGGAUCACCCAUGUGAGGAUAUGCGAAAACCGCUAACAAACCAGACGGGCAGAAGGCAUAUGGU [Leistequ] (puzzle: Exclusion 1) | 68.9 | 39.1 | 63.7 |  |  |  |
| AAAGAAGAGAGAAAAUAACACAUGAGGAUCACCCAUGUGAGAAGAUGAGGGUGAUACAGGCUAUAUGCUCGUCUUAU (puzzle: Sensor v3, turn-off variant 1) | 62.9 | 350 | 104 |  |  |  |

| Sequence | apparent KD of MS2 coat protein [1] [nM] | apparent KD of MS2 coat protein [2] [nM] | apparent KD of MS2 coat protein [3] [nM] | apparent KD of MS2 coat protein (input ligand: FMN 200 uM) [nM] | apparent KD of MS2 coat protein [4] [nM] | apparent KD of MS2 coat protein (input ligand: none) [nM] |
| --- | --- | --- | --- | --- | --- | --- |
| AAAGAGCGAGGAUAUACAUGAGGAUCACCCAUGUGAAGAUGCAUGGUCUGAACGUCUGGUAGAAGGCGUAUGAA [Rebierce] (puzzle: Exclusion 3) |  | 119 |  |  |  |  |
| AAAGCGUGAGGAUAUGAGGCGCCGGGCCGGUUGGUGCGGAUUCAGAAGGCACAUGAGGAUCACCCAUGUCGGUA [Excls4-IV] (puzzle: Exclusion 4) |  | 37.2 |  |  |  |  |
| AAAGGCUAAGGAUAUGCACACAUAAACAUGAGGAUCACCCAUGUGUUCCCAGCAACCAUAGCAGAAGGUAGCGAAA [Rarebeve] (puzzle: Exclusion 5) | 76.5 | 70.1 | 68.7 |  |  |  |
| AAAGGGAAUGAGGAUAUCGUAUUGGAUAUAGUGCGAGAAGGCAUUACAUGAGGAUCACCCAUGUUUUGUUGGGA [JR_Ex6_Sub006] (Eterna round: R97, puzzle: Exclusion 6) |  |  |  | 74.4 |  | 33.9 |
| AAAGUGUUAGGAUAUAGGCGCAGCCAGACGCAGGAAGCGUCCUAGAAGGAACAUGAGGAUCACCCAUGUGGGCG [Eternabot (Original) Solution 41] (Eterna round: R97, puzzle: Exclusion 4) |  |  |  | 1180 |  | 364 |
| AAAUAACGAGGAUAUAGGGUCCGGAACAUGAGGAUCACCCAUGUAUUGGAAACAACGUGGUUAGAAGGCGUUGCCC [EX5 A.15] (Eterna round: R97, puzzle: Exclusion 5) |  |  |  | 25.6 |  | 28.7 |
| AAAUAAUAGAUAAAAUAAAACAUGAGGAUCACCCAUGUAGGCAGAUGAGGGUGAAACAAGCUUUUUGCUCGUCUUAU (puzzle: Sensor v3, turn-off variant 1) | 63.9 | 477 | 75.1 |  |  |  |
| AAAUAAUAGAUAAAAUAAAACAUGAGGAUCACCCAUGUAGGCUGAUGAGGGUGAAACAAGCUUUUUGCUCGUCUUAU (puzzle: Sensor v3, turn-off variant 1) | 154 | 560 | 197 |  |  |  |
| AAAUACAAGUAAAGAUCCUACAUGAGGAUCACCCAUGUGCUCGUCUUGUAAAGUACUAUCACGAAAGUGAUAGUACU [Mat - Sensor v3 - turn-off var 1 - Eli Mod - D87] (puzzle: Sensor v3, turn-off variant 1) | 45.3 | 29.7 | 47.7 |  |  |  |
| AAAUACCGGUGAGGAUAUUUUUAAUAGAACUUUAUGAUAUACAUGAGGAUCACCCAUGUUACUUUAAAGAAGGCAUCGGAUAAA [Mat - Exclusion NG 2 - Mod of JL - D88] (Eterna round: R96, puzzle: Exclusion NG 2) |  |  |  |  | 12.1 |  |
| AAAUAGCAUGAGGAUAUCGAAUUAUAUAUAGUACGAGAAGGCAUGACAUGAGGAUCACCCAUGUUUUGUUGGGA [EX6 #1] (Eterna round: R97, puzzle: Exclusion 6) |  |  |  | 124 |  | 57.5 |
| AAAUAGCUAGAGGAUAUUGGAUAGGAUUUAAUACGAGAAGGUUAGACAUGAGGAUCACCCAUGUUGUGUUGGGA [EX6 #17] (Eterna round: R97, puzzle: Exclusion 6) |  |  |  | 51.3 |  | 48.5 |
| AAAUAGCUAGAGGAUAUUGGAUAGGAUUUACUACGAGAAGGUUAGACAUGAGGAUCACCCAUGUUGUGUUGGGA [EX6 #18] (Eterna round: R97, puzzle: Exclusion 6) |  |  |  | 55.2 |  | 53.4 |
| AAAUAGGCAGGAUAUACAUGAGGAUCACCCAUGUGCCUAUGAAAGGUAAUUUUGAAAGGUAGAAGGGCCUAAAA [ChP 13.04.2015 #4] (puzzle: Exclusion 3) |  | 10.1 |  |  |  |  |
| AAAUCGGUAGAGGAUAUUGUACAGGAAACGGUGCAAGAAGGUUGCACAUGAGGAUCACCCAUGUUUAAUUGCGA [EX6 #50] (Eterna round: R97, puzzle: Exclusion 6) |  |  |  | 33.9 |  | 36.2 |
| AAAUCGGUAGAGGAUAUUGUACAGGAAACGGUGCGAGAAGGCUACACAUGAGGAUCACCCAUGUUAAAUAGCGA [EX6 #55] (Eterna round: R97, puzzle: Exclusion 6) |  |  |  | 17 |  | 15.8 |
